Starred links: 1 amine or outer side, 2 acyl side, 3 side chain; linkers in the order of their positions; H or OH if unused. Non-standard residues stand in square brackets, D forms with d. Groups on a side chain read outwards from the residue. No end group written: not given here. *: point of attachment. C20 diacid = O=C(O)CCCCCCCCCCCCCCCCCCC(=O)*; C18 diacid = O=C(O)CCCCCCCCCCCCCCCCC(=O)*; γGlu = O=C(O)[C@H](CCC(=O)[*:2])N[*:1]; αMeF = C[C@](N)(Cc1ccccc1)C(=O)O; AEEA = NCCOCCOCC(=O)O; Aib = CC(C)(N)C(=O)O
Legend:
human GLP-1 receptor = human GLP-1 receptor (human, UniProt P43220); assay: cell-based or functional assay
human glucagon receptor = human glucagon receptor (human, UniProt P47871); assay: cell-based or functional assay

| Binder | cAMP production EC50 (human GLP-1 receptor) [pM] | cAMP production EC50 (human glucagon receptor) [pM] |
| --- | --- | --- |
| H[Aib]QGTFTSDVSK[αMeF]LDTK([AEEA-AEEA-γGlu-γGlu-C18 diacid])RAQDFVAWLEA[Aib]G-OH (N-terminus assumed; SMILES CC(C)C[C@H](NC(=O)[C@H](Cc1c[nH]c2ccccc12)NC(=O)[C@H](C)NC(=O)[C@@H](NC(=O)[C@H](Cc1ccccc1)NC(=O)[C@H](CC(=O)O)NC(=O)[C@H](CCC(N)=O)NC(=O)[C@H](C)NC(=O)[C@H](CCCNC(=N)N)NC(=O)[C@H](CCCCNC(=O)COCCOCCNC(=O)COCCOCCNC(=O)CC[C@H](NC(=O)CC[C@H](NC(=O)CCCCCCCCCCCCCCCCC(=O)O)C(=O)O)C(=O)O)NC(=O)[C@@H](NC(=O)[C@H](CC(=O)O)NC(=O)[C@H](CC(C)C)NC(=O)[C@](C)(Cc1ccccc1)NC(=O)[C@H](CCCCN)NC(=O)[C@H](CO)NC(=O)[C@@H](NC(=O)[C@H](CC(=O)O)NC(=O)[C@H](CO)NC(=O)[C@@H](NC(=O)[C@H](Cc1ccccc1)NC(=O)[C@@H](NC(=O)CNC(=O)[C@H](CCC(N)=O)NC(=O)C(C)(C)NC(=O)[C@@H](N)Cc1c[nH]cn1)[C@@H](C)O)[C@@H](C)O)C(C)C)[C@@H](C)O)C(C)C)C(=O)N[C@@H](CCC(=O)O)C(=O)N[C@@H](C)C(=O)NC(C)(C)C(=O)NCC(=O)O) [Peptide 417] | 33.9 | 16.4 |
| H[Aib]QGTFTSDVSK[αMeF]LDKK([AEEA-AEEA-γGlu-C18 diacid])RAQDFVRWLL[Aib]E-NH2 (N-terminus assumed; SMILES CC(C)C[C@H](NC(=O)[C@H](Cc1c[nH]c2ccccc12)NC(=O)[C@H](CCCNC(=N)N)NC(=O)[C@@H](NC(=O)[C@H](Cc1ccccc1)NC(=O)[C@H](CC(=O)O)NC(=O)[C@H](CCC(N)=O)NC(=O)[C@H](C)NC(=O)[C@H](CCCNC(=N)N)NC(=O)[C@H](CCCCNC(=O)COCCOCCNC(=O)COCCOCCNC(=O)CC[C@H](NC(=O)CCCCCCCCCCCCCCCCC(=O)O)C(=O)O)NC(=O)[C@H](CCCCN)NC(=O)[C@H](CC(=O)O)NC(=O)[C@H](CC(C)C)NC(=O)[C@](C)(Cc1ccccc1)NC(=O)[C@H](CCCCN)NC(=O)[C@H](CO)NC(=O)[C@@H](NC(=O)[C@H](CC(=O)O)NC(=O)[C@H](CO)NC(=O)[C@@H](NC(=O)[C@H](Cc1ccccc1)NC(=O)[C@@H](NC(=O)CNC(=O)[C@H](CCC(N)=O)NC(=O)C(C)(C)NC(=O)[C@@H](N)Cc1c[nH]cn1)[C@@H](C)O)[C@@H](C)O)C(C)C)C(C)C)C(=O)N[C@@H](CC(C)C)C(=O)NC(C)(C)C(=O)N[C@@H](CCC(=O)O)C(N)=O) [Peptide 420] | 23.1 | 36.9 |
| H[Aib]QGTFTSDVSK[αMeF]LESK([AEEA-AEEA-γGlu-C20 diacid])RAQDFVRWLEA[Aib]G-OH (N-terminus assumed; SMILES CC(C)C[C@H](NC(=O)[C@H](Cc1c[nH]c2ccccc12)NC(=O)[C@H](CCCNC(=N)N)NC(=O)[C@@H](NC(=O)[C@H](Cc1ccccc1)NC(=O)[C@H](CC(=O)O)NC(=O)[C@H](CCC(N)=O)NC(=O)[C@H](C)NC(=O)[C@H](CCCNC(=N)N)NC(=O)[C@H](CCCCNC(=O)COCCOCCNC(=O)COCCOCCNC(=O)CC[C@H](NC(=O)CCCCCCCCCCCCCCCCCCC(=O)O)C(=O)O)NC(=O)[C@H](CO)NC(=O)[C@H](CCC(=O)O)NC(=O)[C@H](CC(C)C)NC(=O)[C@](C)(Cc1ccccc1)NC(=O)[C@H](CCCCN)NC(=O)[C@H](CO)NC(=O)[C@@H](NC(=O)[C@H](CC(=O)O)NC(=O)[C@H](CO)NC(=O)[C@@H](NC(=O)[C@H](Cc1ccccc1)NC(=O)[C@@H](NC(=O)CNC(=O)[C@H](CCC(N)=O)NC(=O)C(C)(C)NC(=O)[C@@H](N)Cc1c[nH]cn1)[C@@H](C)O)[C@@H](C)O)C(C)C)C(C)C)C(=O)N[C@@H](CCC(=O)O)C(=O)N[C@@H](C)C(=O)NC(C)(C)C(=O)NCC(=O)O) [Peptide 416] | 67.7 | 581 |
| H[Aib]QGTFTSDVSK[αMeF]LDTK([AEEA-AEEA-γGlu-γGlu-C20 diacid])RAQDFVAWLEA[Aib]G-OH (N-terminus assumed; SMILES CC(C)C[C@H](NC(=O)[C@H](Cc1c[nH]c2ccccc12)NC(=O)[C@H](C)NC(=O)[C@@H](NC(=O)[C@H](Cc1ccccc1)NC(=O)[C@H](CC(=O)O)NC(=O)[C@H](CCC(N)=O)NC(=O)[C@H](C)NC(=O)[C@H](CCCNC(=N)N)NC(=O)[C@H](CCCCNC(=O)COCCOCCNC(=O)COCCOCCNC(=O)CC[C@H](NC(=O)CC[C@H](NC(=O)CCCCCCCCCCCCCCCCCCC(=O)O)C(=O)O)C(=O)O)NC(=O)[C@@H](NC(=O)[C@H](CC(=O)O)NC(=O)[C@H](CC(C)C)NC(=O)[C@](C)(Cc1ccccc1)NC(=O)[C@H](CCCCN)NC(=O)[C@H](CO)NC(=O)[C@@H](NC(=O)[C@H](CC(=O)O)NC(=O)[C@H](CO)NC(=O)[C@@H](NC(=O)[C@H](Cc1ccccc1)NC(=O)[C@@H](NC(=O)CNC(=O)[C@H](CCC(N)=O)NC(=O)C(C)(C)NC(=O)[C@@H](N)Cc1c[nH]cn1)[C@@H](C)O)[C@@H](C)O)C(C)C)[C@@H](C)O)C(C)C)C(=O)N[C@@H](CCC(=O)O)C(=O)N[C@@H](C)C(=O)NC(C)(C)C(=O)NCC(=O)O) [Peptide 418] | 88.1 | 222 |
| H[Aib]QGTFTSDVSK[αMeF]LDRK([AEEA-AEEA-γGlu-C18 diacid])RAQDFVRWLL[Aib]TE-OH (N-terminus assumed; SMILES CC(C)C[C@H](NC(=O)[C@H](Cc1c[nH]c2ccccc12)NC(=O)[C@H](CCCNC(=N)N)NC(=O)[C@@H](NC(=O)[C@H](Cc1ccccc1)NC(=O)[C@H](CC(=O)O)NC(=O)[C@H](CCC(N)=O)NC(=O)[C@H](C)NC(=O)[C@H](CCCNC(=N)N)NC(=O)[C@H](CCCCNC(=O)COCCOCCNC(=O)COCCOCCNC(=O)CC[C@H](NC(=O)CCCCCCCCCCCCCCCCC(=O)O)C(=O)O)NC(=O)[C@H](CCCNC(=N)N)NC(=O)[C@H](CC(=O)O)NC(=O)[C@H](CC(C)C)NC(=O)[C@](C)(Cc1ccccc1)NC(=O)[C@H](CCCCN)NC(=O)[C@H](CO)NC(=O)[C@@H](NC(=O)[C@H](CC(=O)O)NC(=O)[C@H](CO)NC(=O)[C@@H](NC(=O)[C@H](Cc1ccccc1)NC(=O)[C@@H](NC(=O)CNC(=O)[C@H](CCC(N)=O)NC(=O)C(C)(C)NC(=O)[C@@H](N)Cc1c[nH]cn1)[C@@H](C)O)[C@@H](C)O)C(C)C)C(C)C)C(=O)N[C@@H](CC(C)C)C(=O)NC(C)(C)C(=O)N[C@H](C(=O)N[C@@H](CCC(=O)O)C(=O)O)[C@@H](C)O) [Peptide 421] | 87.3 | 180 |
| H[Aib]QGTFTSDVSK[αMeF]LESK([AEEA-AEEA-γGlu-C18 diacid])RAQDFVRWLEA[Aib]G-OH (N-terminus assumed; SMILES CC(C)C[C@H](NC(=O)[C@H](Cc1c[nH]c2ccccc12)NC(=O)[C@H](CCCNC(=N)N)NC(=O)[C@@H](NC(=O)[C@H](Cc1ccccc1)NC(=O)[C@H](CC(=O)O)NC(=O)[C@H](CCC(N)=O)NC(=O)[C@H](C)NC(=O)[C@H](CCCNC(=N)N)NC(=O)[C@H](CCCCNC(=O)COCCOCCNC(=O)COCCOCCNC(=O)CC[C@H](NC(=O)CCCCCCCCCCCCCCCCC(=O)O)C(=O)O)NC(=O)[C@H](CO)NC(=O)[C@H](CCC(=O)O)NC(=O)[C@H](CC(C)C)NC(=O)[C@](C)(Cc1ccccc1)NC(=O)[C@H](CCCCN)NC(=O)[C@H](CO)NC(=O)[C@@H](NC(=O)[C@H](CC(=O)O)NC(=O)[C@H](CO)NC(=O)[C@@H](NC(=O)[C@H](Cc1ccccc1)NC(=O)[C@@H](NC(=O)CNC(=O)[C@H](CCC(N)=O)NC(=O)C(C)(C)NC(=O)[C@@H](N)Cc1c[nH]cn1)[C@@H](C)O)[C@@H](C)O)C(C)C)C(C)C)C(=O)N[C@@H](CCC(=O)O)C(=O)N[C@@H](C)C(=O)NC(C)(C)C(=O)NCC(=O)O) [Peptide 415] | 14.7 | 301 |
| H[Aib]QGTFTSDVSK[αMeF]LDTK([AEEA-AEEA-γGlu-C18 diacid])RAQDFVRWLE[Aib]E-OH (N-terminus assumed; SMILES CC(C)C[C@H](NC(=O)[C@H](Cc1c[nH]c2ccccc12)NC(=O)[C@H](CCCNC(=N)N)NC(=O)[C@@H](NC(=O)[C@H](Cc1ccccc1)NC(=O)[C@H](CC(=O)O)NC(=O)[C@H](CCC(N)=O)NC(=O)[C@H](C)NC(=O)[C@H](CCCNC(=N)N)NC(=O)[C@H](CCCCNC(=O)COCCOCCNC(=O)COCCOCCNC(=O)CC[C@H](NC(=O)CCCCCCCCCCCCCCCCC(=O)O)C(=O)O)NC(=O)[C@@H](NC(=O)[C@H](CC(=O)O)NC(=O)[C@H](CC(C)C)NC(=O)[C@](C)(Cc1ccccc1)NC(=O)[C@H](CCCCN)NC(=O)[C@H](CO)NC(=O)[C@@H](NC(=O)[C@H](CC(=O)O)NC(=O)[C@H](CO)NC(=O)[C@@H](NC(=O)[C@H](Cc1ccccc1)NC(=O)[C@@H](NC(=O)CNC(=O)[C@H](CCC(N)=O)NC(=O)C(C)(C)NC(=O)[C@@H](N)Cc1c[nH]cn1)[C@@H](C)O)[C@@H](C)O)C(C)C)[C@@H](C)O)C(C)C)C(=O)N[C@@H](CCC(=O)O)C(=O)NC(C)(C)C(=O)N[C@@H](CCC(=O)O)C(=O)O) [Peptide 419] | 96.9 | 264 |

Source: patent publication US12630600B2 (MEDIMMUNE LIMITED, priority 2022, dated 2026)
